Source: patent US20220363757A1

Columns and labels:
Assay in all cases: SPR, Fab over captured mutant LAG-3-Fc
[1] = molecular target: human LAG-3 domain 1-2 Fc fusion, point mutation #6 T47A (human) (UniProt P18627)
[2] = molecular target: human LAG-3 domain 1-2 Fc fusion, point mutation #75 R141A (human) (UniProt P18627)
[3] = molecular target: human LAG-3 domain 1-2 Fc fusion, chimeric construct #6 (mutated region AA 48-55) (human) (UniProt P18627)
[4] = molecular target: human LAG-3 domain 1-2 Fc fusion, point mutation #47 T100A (human) (UniProt P18627)
Sequence of human LAG-3 domain 1-2 Fc fusion, point mutation #47 T100A (human) (P18627 23-266 T100A): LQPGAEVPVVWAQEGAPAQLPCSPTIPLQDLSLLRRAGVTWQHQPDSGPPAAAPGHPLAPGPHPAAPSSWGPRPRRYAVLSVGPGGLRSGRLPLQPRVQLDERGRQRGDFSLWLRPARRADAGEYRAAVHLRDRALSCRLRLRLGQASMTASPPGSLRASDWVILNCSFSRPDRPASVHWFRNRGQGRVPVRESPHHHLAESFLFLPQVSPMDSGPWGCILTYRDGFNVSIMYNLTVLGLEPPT

[5] = molecular target: human LAG-3 domain 1-2 Fc fusion, point mutation #37 S90A (human) (UniProt P18627)
Sequence of human LAG-3 domain 1-2 Fc fusion, point mutation #37 S90A (human) (P18627 23-266 S90A): as the sequence (P18627 23-266 T100A) above, with S68A, A78T counted along it

[6] = molecular target: human LAG-3 domain 1-2 Fc fusion, point mutation #31 P84A (human) (UniProt P18627)
Sequence of human LAG-3 domain 1-2 Fc fusion, point mutation #31 P84A (human) (P18627 23-266 P84A): as the sequence (P18627 23-266 T100A) above, with P62A, A78T counted along it

[7] = molecular target: human LAG-3 domain 1-2 Fc fusion, chimeric construct #25 (mutated region AA 154-158) (human) (UniProt P18627)
Sequence of human LAG-3 domain 1-2 Fc fusion, chimeric construct #25 (mutated region AA 154-158) (human) (P18627 other isoform, or with tags, fused parts or gaps mutant): as the sequence (P18627 23-266 T100A) above, with A78T, R132P, A135D, L136F counted along it

[8] = molecular target: human LAG-3 domain 1-2 Fc fusion, point mutation #50 P106A (human) (UniProt P18627)
Sequence of human LAG-3 domain 1-2 Fc fusion, point mutation #50 P106A (human) (P18627 23-266 P106A): as the sequence (P18627 23-266 T100A) above, with A78T, P84A counted along it

[9] = molecular target: human LAG-3 domain 1-2 Fc fusion, chimeric construct #24 (mutated region AA 148-154) (human) (UniProt P18627)
[10] = molecular target: human LAG-3 domain 1-2 Fc fusion, point mutation #29 P82A (human) (UniProt P18627)
Sequence of human LAG-3 domain 1-2 Fc fusion, point mutation #29 P82A (human) (P18627 23-266 P82A): as the sequence (P18627 23-266 T100A) above, with P60A, A78T counted along it

[11] = molecular target: human LAG-3 domain 1-2 Fc fusion, chimeric construct #27 (mutated region AA 161-166) (human) (UniProt P18627)
[12] = molecular target: human LAG-3 domain 1-2 Fc fusion, point mutation #62 Q121A (human) (UniProt P18627)
Sequence of human LAG-3 domain 1-2 Fc fusion, point mutation #62 Q121A (human) (P18627 23-266 Q121A): as the sequence (P18627 23-266 T100A) above, with A78T, Q99A counted along it

[13] = molecular target: human LAG-3 domain 1-2 Fc fusion, point mutation #57 R113A (human) (UniProt P18627)
[14] = molecular target: human LAG-3 domain 1-2 Fc fusion, point mutation #65 R125A (human) (UniProt P18627)
[15] = molecular target: human LAG-3 domain 1-2 Fc fusion, point mutation #8 Q51A (human) (UniProt P18627)
Sequence of human LAG-3 domain 1-2 Fc fusion, point mutation #8 Q51A (human) (P18627 23-266 Q51A): as the sequence (P18627 23-266 T100A) above, with Q29A, A78T counted along it

[16] = molecular target: human LAG-3 domain 1-2 Fc fusion, point mutation #64 E124A (human) (UniProt P18627)
Sequence of human LAG-3 domain 1-2 Fc fusion, point mutation #64 E124A (human) (P18627 23-266 E124A): as the sequence (P18627 23-266 T100A) above, with A78T, E102A counted along it

[17] = molecular target: human LAG-3 domain 1-2 Fc fusion, point mutation #27 L80A (human) (UniProt P18627)
[18] = molecular target: human LAG-3 domain 1-2 Fc fusion, point mutation #5 P46A (human) (UniProt P18627)
[19] = molecular target: human LAG-3 domain 1-2 Fc fusion, point mutation #22 A75S (human) (UniProt P18627)
Sequence of human LAG-3 domain 1-2 Fc fusion, point mutation #22 A75S (human) (P18627 23-266 A75S): as the sequence (P18627 23-266 T100A) above, with A53S, A78T counted along it

[20] = molecular target: human LAG-3 domain 1-2 Fc fusion, point mutation #4 S45A (human) (UniProt P18627)
[21] = molecular target: human LAG-3 domain 1-2 Fc fusion, point mutation #13 R58A (human) (UniProt P18627)
Sequence of human LAG-3 domain 1-2 Fc fusion, point mutation #13 R58A (human) (P18627 23-266 R58A): as the sequence (P18627 23-266 T100A) above, with R36A, A78T counted along it

[22] = molecular target: human LAG-3 domain 1-2 Fc fusion, chimeric construct #17 (mutated region AA 114-117) (human) (UniProt P18627)
[23] = molecular target: human LAG-3 domain 1-2 Fc fusion, point mutation #78 R154A (human) (UniProt P18627)
Sequence of human LAG-3 domain 1-2 Fc fusion, point mutation #78 R154A (human) (P18627 23-266 R154A): as the sequence (P18627 23-266 T100A) above, with A78T, R132A counted along it

[24] = molecular target: human LAG-3 domain 1-2 Fc fusion, point mutation #1 A40S (human) (UniProt P18627)
Sequence of human LAG-3 domain 1-2 Fc fusion, point mutation #1 A40S (human) (P18627 23-266 A40S): as the sequence (P18627 23-266 T100A) above, with A18S, A78T counted along it

[25] = molecular target: human LAG-3 domain 1-2 Fc fusion, chimeric construct #11 (mutated region AA 74-82) (human) (UniProt P18627)
[26] = molecular target: human LAG-3 domain 1-2 Fc fusion, point mutation #42 R95A (human) (UniProt P18627)
[27] = molecular target: human LAG-3 domain 1-2 Fc fusion, point mutation #15 Q64A (human) (UniProt P18627)
[28] = molecular target: human LAG-3 domain 1-2 Fc fusion, point mutation #32 H85A (human) (UniProt P18627)
Sequence of human LAG-3 domain 1-2 Fc fusion, point mutation #32 H85A (human) (P18627 23-266 H85A): as the sequence (P18627 23-266 T100A) above, with H63A, A78T counted along it

[29] = molecular target: human LAG-3 domain 1-2 Fc fusion, point mutation #43 P96A (human) (UniProt P18627)
Sequence of human LAG-3 domain 1-2 Fc fusion, point mutation #43 P96A (human) (P18627 23-266 P96A): as the sequence (P18627 23-266 T100A) above, with P74A, A78T counted along it

[30] = molecular target: human LAG-3 domain 1-2 Fc fusion, point mutation #72 S133A (human) (UniProt P18627)
[31] = molecular target: human LAG-3 domain 1-2 Fc fusion, chimeric construct #2 (mutated region AA 29-30) (human) (UniProt P18627)
Sequence of human LAG-3 domain 1-2 Fc fusion, chimeric construct #2 (mutated region AA 29-30) (human) (P18627 other isoform, or with tags, fused parts or gaps mutant): as the sequence (P18627 23-266 T100A) above, with V7L, P8S, A78T counted along it

[32] = molecular target: human LAG-3 domain 1-2 Fc fusion, point mutation #61 R119A (human) (UniProt P18627)
[33] = molecular target: human LAG-3 domain 1-2 Fc fusion, point mutation #40 G93A (human) (UniProt P18627)
Sequence of human LAG-3 domain 1-2 Fc fusion, point mutation #40 G93A (human) (P18627 23-266 G93A): as the sequence (P18627 23-266 T100A) above, with G71A, A78T counted along it

Sequence of human LAG-3 domain 1-2 Fc fusion, point mutation #6 T47A (human) (P18627 23-266 T47A): as the sequence (P18627 23-266 T100A) above, with T25A, A78T counted along it
Sequence of human LAG-3 domain 1-2 Fc fusion, point mutation #75 R141A (human) (P18627 23-266 R141A): as the sequence (P18627 23-266 T100A) above, with A78T, R119A counted along it

- KD mutant/KD wild type [1]: 0.8 fold
- KD mutant/KD wild type [2]: 0.8 fold
- KD mutant/KD wild type [3]: 1.4 fold
- KD mutant/KD wild type [4]: 1.2 fold
- KD mutant/KD wild type [5]: 1 fold
- KD mutant/KD wild type [6]: 0.6 fold
- KD mutant/KD wild type [7]: 0.7 fold
- KD mutant/KD wild type [8]: 1 fold
- KD mutant/KD wild type [9]: 0.7 fold
- KD mutant/KD wild type [10]: 0.9 fold
- KD mutant/KD wild type [11]: 0.8 fold
- KD mutant/KD wild type [12]: 0.9 fold
- KD mutant/KD wild type [13]: 0.8 fold
- KD mutant/KD wild type [14]: 0.9 fold
- KD mutant/KD wild type [15]: 0.8 fold
- KD mutant/KD wild type [16]: 1.1 fold
- KD mutant/KD wild type [17]: 0.7 fold
- KD mutant/KD wild type [18]: 1.1 fold
- KD mutant/KD wild type [19]: 0.9 fold
- KD mutant/KD wild type [20]: 1 fold
- KD mutant/KD wild type [21]: 0.8 fold
- KD mutant/KD wild type [22]: 1.3 fold
- KD mutant/KD wild type [23]: 0.8 fold
- KD mutant/KD wild type [24]: 1.1 fold
- KD mutant/KD wild type [25]: 1.1 fold
- KD mutant/KD wild type [26]: 1.9 fold
- KD mutant/KD wild type [27]: 1.3 fold
- KD mutant/KD wild type [28]: 14.1 fold
- KD mutant/KD wild type [29]: 0.7 fold
- KD mutant/KD wild type [30]: 1.1 fold
- KD mutant/KD wild type [31]: 1.2 fold
- KD mutant/KD wild type [32]: 1.1 fold
- KD mutant/KD wild type [33]: 6.2 fold
Substance: Fab fragment of 25F7-Lag3.5 analogue
